According to the Human Domainome abundance scans (Beltran et al. 2025):

B1: Tripartite motif-containing protein 44, residues 174 to 218; numbered along this chain, Q96DX7 (parent)
chain: VAKRKCPDHGLDLSTYCQEDRQLICVLCPVIGAHQGHQLSTLDEA

Variants of: B1
Experiment: abundance fitness (aPCA) (normalised: wild type 0, dead -1); higher = more abundant; growth selection in yeast, the domain comes from the species named
Conditions: Homo sapiens

Abundance fitness: each site, then its substitutions
D12: E 0.003; R -0.214; M -0.048; P -0.033; L -0.166; A -0.117; F -0.15; S -0.113; N -0.072; G -0.098; T -0.071; W -0.141; Q -0.116; H 0.017; Y -0.132; C -0.366; I -0.016; K -0.082
Q18: H 0.035; W -0.189; D 0.009; N -0.01; F -0.109; K 0.037; V -0.086; A -0.021; L -0.061; G -0.111; T -0.06; P -0.038; S -0.015; I -0.058; Y 0.08; E 0.008; R -0.043; C -0.041; M -0.01
Y16: M -0.011; E -0.033; W -0.039; Q -0.029; F -0.069; T 0.029; C -0.132; A -0.266; R -0.043; P -0.379; H -0.053; D -0.276; L -0.054; G -0.373; K -0.059; S -0.16; I 0.127; V -0.052; N -0.167
G10: W -0.311; H 0.002; I -0.445; V -0.519; R -0.147; Y -0.125; P -0.776; T -0.347; S -0.064; C -0.143; M -0.078; L -0.116; Q -0.027; F -0.206; K -0.106; N 0.118; E -0.074
R4: M 0.023; S -0.054; C -0.248; D 0.016; T -0.07; N 0.071; H -0.198; P -0.314; I -0.046; W -0.162; A -0.062; E -0.046; F -0.041; L -0.061; K 0.007; G -0.057; V -0.086
K3: W -0.196; A -0.134; I 0.032; V -0.076; H -0.08; P -0.093; T -0.013; D 0.024; C -0.379; Y -0.137; R -0.073; L -0.09; F -0.124; G -0.052; Q -0.038; S -0.056; E 0.02; N -0.042
C17: N -0.701; G -0.557; P -0.751; Y -0.767; L -0.982; T -0.705; E -0.546; V -0.753; R -0.484; H -0.818; M -0.779; D -0.631; S -0.562; F -0.334; A -0.641; Q -0.633; W -0.931; K -0.657; I -0.759
S14: M -0.049; W -0.155; F -0.074; H -0.014; K 0.014; L -0.031; V 0.011; R -0.098; I 0.023; Q -0.001; T 0.01; E 0.033; D 0.006; N 0.094; G 0.019; P -0.688; A -0.001
K5: Y -0.221; G -0.218; S -0.125; N -0.111; T -0.115; E -0.173; C -0.141; D -0.409; L -0.15; Q -0.163; H -0.24; V -0.135; W -0.308; A -0.235; R -0.159; F -0.129; I -0.198
L13: I -0.154; G -0.282; W -0.175; V -0.082; S -0.166; Q -0.009; C -0.034; M -0.031; Y -0.147; T -0.079; K -0.204; E -0.123; R -0.1; N -0.296; H -0.339; P -0.276; F -0.186
E19: F -0.097; Q -0.062; N -0.033; G -0.093; M -0.108; L -0.081; S -0.048; P -0.198; H -0.032; A -0.045; V -0.06; Y -0.082; W -0.153; I -0.063; T -0.01; R -0.098; D 0.045; C -0.063
V1: W -0.231; Q -0.159; S -0.027; Y -0.226; R -0.39
C6: V -1.07; K -0.874; D -0.701; Y -0.92; Q -0.889; A -1.05; H -1.1; R -0.999; E -0.946; T -0.783; M -1.04; W -1.06; P -1.07; N -0.889
P7: W -0.191; C -0.141; G -0.169; T 0.065; N -0.565; I -0.092; Q 0.038; L -0.124; M -0.036; F -0.321; S -0.089; V -0.25; R -0.168; E -0.446; A -0.013; K -0.342; D -0.481; Y -0.226
T15: G -0.101; K 0.048; C -0.153; L -0.196; I -0.137; D -0.006; N 0.014; V -0.198; W -0.2; P -0.544; H -0.033; M -0.106; Y 0.001; F -0.382; S -0.03; Q 0.039; A -0.085; R -0.054
D20: C -0.045; P -0.896; Y -0.57; G -0.487; R -0.072; Q -0.377; S -0.138; E -0.033; F -0.914; N -0.419; L -0.656; A -0.585; V -0.642; K -0.3; M -0.685; T -0.217; H -0.141
D8: M 0.057; N -0.045; P -0.827; Y 0.049; W -0.105; T 0.051; C -0.103; S -0.03; E 0.044; Q 0.028; L 0.048; H 0.038; I 0.029; A 0.016; F -0.034; K 0.047
H9: P -1.15; W -1.03; I -0.891; R -0.975; D -0.981; S -1.02; N -0.838; E -0.863; V -0.986; K -0.995; Y -0.791; M -0.901; T -0.919; G -0.91; A -1; F -1.24; C -0.103; Q -0.964
L11: V -0.183; E 0.005; M -0.05; Q -0.024; D -0.198; W -0.214; T -0.147; F -0.083; H 0.033; G -0.169; R 0; P -0.778; C -0.009; K 0.016; Y -0.031; S -0.189
A2: P -0.088; R -0.12; C 0.04; S 0.045; F 0.009; G -0.04; T 0.12; M -0.009; N 0.096; L -0.031; I 0.041; D 0.053; H 0.03; V -0.037; Y -0.027; E 0.087
